Measurements from publication PMC7763554, “The Two-Component System CopRS Maintains Subfemtomolar Levels of Free Copper in the Periplasm of Pseudomonas aeruginosa Using a Phosphatase-Based Mechanism” (mSphere, 2020).

Target: the molecule itself
Test: SDS-PAGE; 10 ug of purified protein on 8 to 16% gradient SDS-PAGE, Coomassie blue G250; monomer and dimer bands with expected masses of 19 and 38 kDa

B1: His-tagged CopS(34-151), periplasmic copper binding loop (sensor domain) of Pseudomonas aeruginosa CopS (domain or fragment, UniProt Q9I033 34-151, looked up)
chain: FSRAIDEHFVELDHMAMSAKLAVFRDELRGLGSEQQMRRREAELLRELARHPDLGLRLNGPDGNLWFERLPQPAHPGLPANRELGAPLEPGNDASPRLTVILDISHHQHFLQRMRQLI
notes: CopS, sensor histidine kinase of the two-component system CopRS, Pseudomonas aeruginosa PAO1; periplasmic sensor domain, residues 34-151, amplified from genomic DNA; The His6 tag is joined by a TEV cleavage site, and the tag was not cleaved; The expected monomer mass is printed as 19 kDa, which is more than residues 34-151 plus the tag would give, so the pBAD-topo vector may add residues …
stoichiometry N: 2
